experiment: soluble on expression in E. coli; label from the status in PepcDB or PDB records

| Sequence | soluble on expression in E. coli |
| --- | --- |
| SLSLESLEWMAFDSFLLWRSEESIDARILLVEINQNDNYSLTSTISNSSFIGVIEKLQVYQPKVIGLEVDQHLLINSQEDKLAKIFQKYKNLIANEKILPLQVHSYLDLPNEQITFADQILDNDGKSRRSLLAINTSNGYKLSLAMELARIYLAEKNISLENSRLGKTKLPRFLPNSGGYIRADASGFQVLINFRSGNQRFRTLSGEDIKNGKFNPEWIRDRIVIIGITNTHNQGFIPTSAITSVKSASTQVNKLEIQAHAISQIISAVLDGRPLINTWNDG | soluble |
| SLSWLTTHFVVTNRRVMFRHGVLTRSGIDIPLARINSVEFRDRIFERIFRTGTLIIESASQDPLEFYNIPRLREVHALLYHEVFDTLGSDESPS | soluble |
| SLTHYKYYEANVETNQVLVFLHGFLSDSRTYHNHIEKFTDNYHVITIDLPGHGEDQSSMDETWNFDYITTLLDRILDKYKDKSITLFGYSMGGRVALYYAINGHIPISNLILESTSPGIKEEANQLERRLVDDARAKVLDIAGIELFVNDWEKLPLFQSQLELPVEIQHQIRQQRLSQSPHKMAKALRDYGTGQMPNLWPRLKEIKVPTLILAGEYDEKFVQIAKKMANLIPNSKCKLISATGHTIHVEDSDEFDTMILGFLKEEQND | soluble |
| SLTSEMIENIQSVKAYCWEEAMEKSGGGSGGGSGGGSGGGIENSHVKKDDIWPSGGQMTVKDLTAKYTEGGNAILENISFSISPGQRVGLLGRTGSGKSTLLSAFLRLLNTEGEIQIDGVSWDSITLEQWRKAFGVIPQKVFIFSGTFRKNLDPYEQWSDQEIWKVADEVGLRSVIEQFPGKLDFVLVDGGCVLSHGHKQLMCLARSVLSKAKILLLDEPSAHLDPVTYQIIRRTLKQAFADCTVILCEARIEAMLECDQFLVIEENKVRQYDSIQKLLNERSDFRQAISPSD | soluble |
| SLVMKASVDDDDSGWELSMPEKMEKSNTNWVDITQDFEEACRELKLGELLHDKLFGLFEAMSAIEMMDPKMDAGMIGNQVNRKVLNFEQAIKDGTIKIKDLTLPELIGIMDTCFCCLITWLEGHSLAQTVFTCLYIHNPDFIEDPAMKAFALGILKICDIAREKVNKAAVFEEEDFQSMTYGFKMANSVTDLRVTGMLKDVEDDMQRRVKSTRSRQGEERDPEVELEHQQCLAVFSRVKFTRVLLTVLIAFTKKETSAVAEAQKLMVQAADLLSAIHNSLHHGIQAQNDTT | soluble |
| SMDPPPSETHKLVVVGGGGVGKSALTIQFIQSYFVSDYDPTIEDSYTKICSVDGIPARLDILDTAGQEEFGAMREQYMRAGHGFLLVFAINDRQSFNEVGKLFTQILRVKDRDDFPVVLVGNKADLESQRQVPRSEASAFGASHHVAYFEASAKLRLNVDEAFEQLVRAVRKYQEQELPPS | soluble |
| SMGGFMEDLRKCKIIFIIGGPGSGKGTQCEKLVEKYGFTHLSTGELLREELASESERSKLIRDIMERGDLVPSGIVLELLKEAMVASLGDTRGFLIDGYPREVKQGEEFGRRIGDPQLVICMDCSADTMTNRLLQMSRSSLPVDDTTKTIAKRLEAYYRASIPVIAYYETKTQLHKINAEGTPEDVFLQLCTAIDSIFL | soluble |
| SMKDHTEGLSDKEQRFVDKLYTGLIQGQRACLAEAITLVESTHSRKKELAQVLLQKVLLYHREQEQSNKGKPLAFRVGLSGPPGAGKSTFIEYFGKMLTERGHKLSVLAVDPSSCTSGGSLLGDKTRMTELSRDMNAYIRPSPTRGTLGGVTRTTNEAILLCEGAGYDIILIETVGVGQSEFAVADMVDMFVLLLPPAGGDELQGIKRGIIEMADLVAVTKSDGDLIVPARRIQAEYVSALKLLRKRSQVWKPKVIRISARSGEGISEMWDKMKDFQDLMLASGELTAKRRKQQKVWMWNLIQESVLEHFRTHPTVREQIPLLEQKVLIGALSPGLAADFLLKAFKSRD | soluble |
| SMSNANPFFSQSLAERDASVRGAILKELERQQSQVELIASENIVSRAVLDAQGSVLTNKYAEGYPGKRYYGGCEFADEVEALAIERVKRLFNAGHANVQPHSGAQANGAVMLALAKPGDTVLGMSLDAGGHLTHGAKPALSGKWFNALQYGVSRDTMLIDYDQVEALAQQHKPSLIIAGFSAYPRKLDFARFRAIADSVGAKLMVDMAHIAGVIAAGRHANPVEHAHVVTSTTHKTLRGPRGGFVLTNDEEIAKKINSAVFPGLQGGPLMHVIAGKAVAFGEALTDDFKTYIDRVLANAQALGDVLKAGGVDLVTGGTDNHLLLVDLRPKGLKGAQVEQALERAGITCNKNGIPFDPEKPTITSGIRLGTPAGTTRGFGAAEFREVGRLILEVFEALRTNPEGDHATEQRVRREIFALCERFPIY | soluble |

— the DeepSol protein solubility set
